Reference: publication PMC10372031, “Architecture and autoinhibitory mechanism of the plasma membrane Na^+/H^+ antiporter SOS1 in Arabidopsis” (Nature Communications, 2023)

Molecular target: the molecule itself
Experiment: cryo-EM structure; single-particle cryo-EM of purified SOS1 in 20 mM HEPES pH 7.5, 150 mM NaCl, 5 mM β-ME, 0.007% GDN; two conformations (SOS1 at 2.8 Å, SOS1^expand at 3.4 Å)

B1: Arabidopsis thaliana Salt-overly-sensitive 1 (SOS1), full-length wild type (natural protein, UniProt Q9LKW9 1-1146, looked up)
chain: MTTVIDATMAYRFLEEATDSSSSSSSSKLESSPVDAVLFVGMSLVLGIASRHLLRGTRVPYTVALLVIGIALGSLEYGAKHNLGKIGHGIRIWNEIDPELLLAVFLPALLFESSFSMEVHQIKRCLGQMVLLAVPGVLISTACLGSLVKVTFPYEWDWKTSLLLGGLLSATDPVAVVALLKELGASKKLSTIIEGESLMNDGTAIVVFQLFLKMAMGQNSDWSSIIKFLLKVALGAVGIGLAFGIASVIWLKFIFNDTVIEITLTIAVSYFAYYTAQEWAGASGVLTVMTLGMFYAAFARTAFKGDSQKSLHHFWEMVAYIANTLIFILSGVVIAEGILDSDKIAYQGNSWRFLFLLYVYIQLSRVVVVGVLYPLLCRFGYGLDWKESIILVWSGLRGAVALALSLSVKQSSGNSHISKETGTLFLFFTGGIVFLTLIVNGSTTQFVLRLLRMDILPAPKKRILEYTKYEMLNKALRAFQDLGDDEELGPADWPTVESYISSLKGSEGELVHHPHNGSKIGSLDPKSLKDIRMRFLNGVQATYWEMLDEGRISEVTANILMQSVDEALDQVSTTLCDWRGLKPHVNFPNYYNFLHSKVVPRKLVTYFAVERLESACYISAAFLRAHTIARQQLYDFLGESNIGSIVINESEKEGEEAKKFLEKVRSSFPQVLRVVKTKQVTYSVLNHLLGYIENLEKVGLLEEKEIAHLHDAVQTGLKKLLRNPPIVKLPKLSDMITSHPLSVALPPAFCEPLKHSKKEPMKLRGVTLYKEGSKPTGVWLIFDGIVKWKSKILSNNHSLHPTFSHGSTLGLYEVLTGKPYLCDLITDSMVLCFFIDSEKILSLQSDSTIDDFLWQESALVLLKLLRPQIFESVAMQELRALVSTESSKLTTYVTGESIEIDCNSIGLLLEGFVKPVGIKEELISSPAALSPSNGNQSFHNSSEASGIMRVSFSQQATQYIVETRARAIIFNIGAFGADRTLHRRPSSLTPPRSSSSDQLQRSFRKEHRGLMSWPENIYAKQQQEINKTTLSLSERAMQLSIFGSMVNVYRRSVSFGGIYNNKLQDNLLYKKLPLNPAQGLVSAKSESSIVTKKQLETRKHACQLPLKGESSTRQNTMVESSDEEDEDEGIVVRIDSPSKIVFRNDL
notes: Arabidopsis thaliana SOS1 Na+/H+ antiporter, ecotype Columbia (Col-0) cDNA, 1146 residues; model holds residues 32-972, 1007-1017 and 1030-1048; Eluate was incubated with PreScission protease for 3 h before SEC; residues of the protease site may remain at the C-terminus; also called AtSOS1; SOS1-ClassII; source: HEK293F cells (Bac-to-Bac baculovirus, pEG-BacMam), purified (Streptactin beads, …)
- stoichiometry N: 2
